Measured values: publication doi:10.1101/2022.11.04.515266

Tests used:
[1] = target: Sinorhizobium meliloti Clr, C-terminally His6-tagged (Sinorhizobium meliloti); assay: crystal structure
[2] = target: Sinorhizobium meliloti Clr, C-terminally His6-tagged (Sinorhizobium meliloti); assay: SEC

Sinorhizobium meliloti Clr, C-terminally His6-tagged (natural protein)
stoichiometry N [1]: 2 | percent in the monomeric state (monomer-dimer equilibrium) [2]: 86%
